T1: IRP1 wild-type (Homo sapiens, UniProt P21399 1-889)
T1 sequence: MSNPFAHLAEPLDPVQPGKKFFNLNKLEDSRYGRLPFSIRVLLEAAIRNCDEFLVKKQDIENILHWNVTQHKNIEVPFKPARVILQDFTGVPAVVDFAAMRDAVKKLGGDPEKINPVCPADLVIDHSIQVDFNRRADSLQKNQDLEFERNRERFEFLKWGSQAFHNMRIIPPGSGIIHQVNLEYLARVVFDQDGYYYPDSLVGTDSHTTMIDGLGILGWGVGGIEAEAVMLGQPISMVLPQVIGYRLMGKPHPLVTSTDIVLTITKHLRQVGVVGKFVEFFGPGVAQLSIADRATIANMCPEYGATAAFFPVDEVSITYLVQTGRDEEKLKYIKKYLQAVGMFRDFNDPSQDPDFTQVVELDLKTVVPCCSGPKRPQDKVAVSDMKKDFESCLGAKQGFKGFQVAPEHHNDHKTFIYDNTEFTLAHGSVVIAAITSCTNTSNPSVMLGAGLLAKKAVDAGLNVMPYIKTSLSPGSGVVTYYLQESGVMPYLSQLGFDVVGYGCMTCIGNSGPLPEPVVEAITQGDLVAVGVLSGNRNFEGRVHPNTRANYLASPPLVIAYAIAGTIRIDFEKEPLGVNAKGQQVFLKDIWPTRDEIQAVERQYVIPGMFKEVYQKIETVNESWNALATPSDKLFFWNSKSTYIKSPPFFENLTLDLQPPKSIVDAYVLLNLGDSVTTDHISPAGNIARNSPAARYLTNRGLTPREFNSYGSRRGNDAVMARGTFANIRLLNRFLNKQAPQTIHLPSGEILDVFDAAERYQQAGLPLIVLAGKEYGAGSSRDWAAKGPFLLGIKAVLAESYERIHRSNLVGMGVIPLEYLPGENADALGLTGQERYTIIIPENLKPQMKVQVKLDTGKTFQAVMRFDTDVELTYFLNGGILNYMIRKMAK


Tests used:
[1] = target: T1, IRP1 wild-type; experiment: EMSA
[2] = target: T1, IRP1 wild-type; experiment: EMSA; remark: listed apart in the source

| Binder | Kd [1] | binding signal [2] |
| --- | --- | --- |
| UUUUUGUUUCCUGCUUCAACAGUGCUUGGACGGAAC (structured_RNA) [wt-IRE (FTH-IRE)] | 18 ± 5 nM | – |
| UUUUUGUUUCCUGCUUCAAAGUGCUUGGACGGAAC (structured_RNA) [IRE-ΔC] | – | ~5 fold unbound RNA fraction vs wt-IRE |
